B1: Zinc finger protein RFP (Homo sapiens), P14373 (parent)
chain: MASGSVAECLQQETTCPVCLQYFAEPMMLDCGHNICCACLARCWGTAETNVSCPQCRETFPQRHMRPNRHLANVTQLVKQLRTERPSGPGGEMGVCEKHREPLKLYCEEDQMPICVVCDRSREHRGHSVLPLEEAVEGFKEQIQNQLDHLKRVKDLKKRRRAQGEQARAELLSLTQMEREKIVWEFEQLYHSLKEHEYRLLARLEELDLAIYNSINGAITQFSCNISHLSSLIAQLEEKQQQPTRELLQDIGDTLSRAERIRIPEPWITPPDLQEKIHIFAQKCLFLTESLKQFTEKMQSDMEKIQELREAQLYSVDVTLDPDTAYPSLILSDNLRQVRYSYLQQDLPDNPERFNLFPCVLGSPCFIAGRHYWEVEVGDKAKWTIGVCEDSVCRKGGVTSAPQNGFWAVSLWYGKEYWALTSPMTALPLRTPLQRVGIFLDYDAGEVSFYNVTERCHTFTFSHATFCGPVRPYFSLSYSGGKSAAPLIICPMSGIDGFSGHVGNHGHSMETSP
partner: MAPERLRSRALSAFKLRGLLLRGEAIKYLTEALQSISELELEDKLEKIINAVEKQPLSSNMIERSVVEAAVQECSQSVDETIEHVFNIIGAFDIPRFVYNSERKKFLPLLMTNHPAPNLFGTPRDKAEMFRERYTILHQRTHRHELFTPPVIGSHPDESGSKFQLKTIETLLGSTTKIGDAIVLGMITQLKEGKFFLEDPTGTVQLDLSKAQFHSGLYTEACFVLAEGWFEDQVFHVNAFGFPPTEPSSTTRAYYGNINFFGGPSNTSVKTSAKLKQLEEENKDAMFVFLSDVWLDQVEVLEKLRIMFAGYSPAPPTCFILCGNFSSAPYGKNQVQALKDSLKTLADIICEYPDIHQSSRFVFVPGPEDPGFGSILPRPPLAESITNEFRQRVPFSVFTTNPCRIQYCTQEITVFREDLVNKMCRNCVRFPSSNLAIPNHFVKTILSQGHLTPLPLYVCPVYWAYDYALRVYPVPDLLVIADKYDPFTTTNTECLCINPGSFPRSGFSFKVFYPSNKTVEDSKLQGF
B2: Microtubule-associated tumor suppressor candidate 2 (Homo sapiens), Q5JR59-3 (parent)
chain: MGHCCCKPYNCLQCLDKTNESALVKEKELSIELANIRDEVAFHTAKCEKLQKEKEELERRFEDEVKRLGWQQQAELQELEERLQLQFEAEMARLQEEHGDQLLSIRCQHQEQVEDLTASHDAALLEMENNHTVAITILQDDHDHKVQELMSTHELEKKELEENFEKLRLSLQDQVDTLTFQSQSLRDRARRFEEALRKNTEEQLEIALAPYQHLEEDMKSLKQVLEMKNQQIHEQEKKILELEKLAEKNIILEEKIQVLQQQNEDLKARIDQNTVVTRQLSEENANLQEYVEKETQEKKRLSRTNEELLWKLQTGDPTSPIKLSPTSPVYRGSSSGPSSPARVSTTPR
partner: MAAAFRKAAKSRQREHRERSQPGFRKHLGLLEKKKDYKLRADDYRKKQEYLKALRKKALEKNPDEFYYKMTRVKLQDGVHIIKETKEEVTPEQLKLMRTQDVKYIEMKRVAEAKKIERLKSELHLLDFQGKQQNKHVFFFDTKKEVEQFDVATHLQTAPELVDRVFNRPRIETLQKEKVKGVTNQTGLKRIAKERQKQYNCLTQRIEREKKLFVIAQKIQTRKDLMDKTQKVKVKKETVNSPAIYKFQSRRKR
B3: Isoform 1 of NF-kappa-B inhibitor beta (Homo sapiens), Q15653-1 (parent)
chain: MAGVACLGKAADADEWCDSGLGSLGPDAAAPGGPGLGAELGPGLSWAPLVFGYVTEDGDTALHLAVIHQHEPFLDFLLGFSAGTEYMDLQNDLGQTALHLAAILGETSTVEKLYAAGAGLCVAERRGHTALHLACRVGAHACARALLQPRPRRPREAPDTYLAQGPDRTPDTNHTPVALYPDSDLEKEEEESEEDWKLQLEAENYEGHTPLHVAVIHKDVEMVRLLRDAGADLDKPEPTCGRSPLHLAVEAQAADVLELLLRAGANPAARMYGGRTPLGSAMLRPNPILARLLRAHGAPEPEGEDEKSGPCSSSSDSDSGDEGDEYDDIVVHSSRSQTRLPPTPASKPLPDDPRPV
partner: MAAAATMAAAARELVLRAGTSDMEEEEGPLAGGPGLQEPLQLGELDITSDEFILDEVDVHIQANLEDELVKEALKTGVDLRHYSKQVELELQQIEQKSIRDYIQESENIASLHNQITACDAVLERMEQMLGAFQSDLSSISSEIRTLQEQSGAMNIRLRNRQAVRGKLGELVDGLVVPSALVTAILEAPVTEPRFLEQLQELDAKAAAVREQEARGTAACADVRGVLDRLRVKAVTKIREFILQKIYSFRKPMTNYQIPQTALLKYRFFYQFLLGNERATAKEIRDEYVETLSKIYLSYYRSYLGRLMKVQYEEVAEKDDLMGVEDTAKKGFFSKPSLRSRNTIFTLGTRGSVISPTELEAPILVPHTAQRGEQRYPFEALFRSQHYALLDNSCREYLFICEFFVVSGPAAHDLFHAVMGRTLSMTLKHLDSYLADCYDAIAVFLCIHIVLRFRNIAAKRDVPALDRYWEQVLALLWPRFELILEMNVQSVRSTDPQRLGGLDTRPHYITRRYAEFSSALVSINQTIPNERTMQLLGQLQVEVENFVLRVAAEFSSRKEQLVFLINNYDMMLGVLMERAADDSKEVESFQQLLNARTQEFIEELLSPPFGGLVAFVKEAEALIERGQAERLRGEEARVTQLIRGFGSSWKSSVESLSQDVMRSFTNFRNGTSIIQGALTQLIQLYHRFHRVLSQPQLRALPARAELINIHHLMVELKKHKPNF
B4: Protein phosphatase 1 regulatory inhibitor subunit 16B (Homo sapiens), Q96T49 (parent)
chain: MASHVDLLTELQLLEKVPTLERLRAAQKRRAQQLKKWAQYEQDLQHRKRKHERKRSTGGRRKKVSFEASVALLEASLRNDAEEVRYFLKNKVSPDLCNEDGLTALHQCCIDNFEEIVKLLLSHGANVNAKDNELWTPLHAAATCGHINLVKILVQYGADLLAVNSDGNMPYDLCEDEPTLDVIETCMAYQGITQEKINEMRVAPEQQMIADIHCMIAAGQDLDWIDAQGATLLHIAGANGYLRAAELLLDHGVRVDVKDWDGWEPLHAAAFWGQMQMAELLVSHGASLSARTSMDEMPIDLCEEEEFKVLLLELKHKHDVIMKSQLRHKSSLSRRTSSAGSRGKVVRRASLSDRTNLYRKEYEGEAILWQRSAAEDQRTSTYNGDIRETRTDQENKDPNPRLEKPVLLSEFPTKIPRGELDMPVENGLRAPVSAYQYALANGDVWKVHEVPDYSMAYGNPGVADATPPWSSYKEQSPQTLLELKRQRAAAKLLSHPFLSTHLGSSMARTGESSSEGKAPLIGGRTSPYSSNGTSVYYTVTSGDPPLLKFKAPIEEMEEKVHGCCRIS

Variants of: B1
Conditions: with dpoe2_human POLE2, P56282

| Variant | effect of a mutation on the interaction |
| --- | --- |
| N355S | with no effect |

Variants of: B2
Conditions: with utp11_human UTP11, Q9Y3A2

| Variant | effect of a mutation on the interaction |
| --- | --- |
| A89V | with no effect |

Variants of: B3
Conditions: with vps52_human VPS52, Q8N1B4

| Variant | effect of a mutation on the interaction |
| --- | --- |
| Q69L | with no effect |

Variants of: B4
Conditions: with crx_human CRX

| Variant | effect of a mutation on the interaction |
| --- | --- |
| P519S | with no effect |

Variants of: B4
Conditions: with ikzf3_human IKZF3, Q9UKT9
ikzf3_human IKZF3, Q9UKT9, sequence (Q9UKT9 whole entry): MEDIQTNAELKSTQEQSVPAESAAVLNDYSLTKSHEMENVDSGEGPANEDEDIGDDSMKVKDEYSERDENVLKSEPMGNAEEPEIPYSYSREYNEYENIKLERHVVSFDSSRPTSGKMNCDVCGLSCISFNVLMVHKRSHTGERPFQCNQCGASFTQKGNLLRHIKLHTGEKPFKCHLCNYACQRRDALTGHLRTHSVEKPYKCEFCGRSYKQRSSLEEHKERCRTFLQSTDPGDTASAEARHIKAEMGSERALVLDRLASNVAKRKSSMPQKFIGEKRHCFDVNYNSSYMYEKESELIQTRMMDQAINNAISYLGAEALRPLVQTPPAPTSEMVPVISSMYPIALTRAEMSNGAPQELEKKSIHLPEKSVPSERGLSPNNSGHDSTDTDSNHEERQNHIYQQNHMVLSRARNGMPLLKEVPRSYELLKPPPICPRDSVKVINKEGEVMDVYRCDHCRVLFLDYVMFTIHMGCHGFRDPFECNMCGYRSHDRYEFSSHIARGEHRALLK

| Variant | effect of a mutation on the interaction |
| --- | --- |
| P519S | with no effect |

Variants of: B4
Conditions: with sf3b4_human SF3B4, Q15427
sf3b4_human SF3B4, Q15427, sequence (Q15427 whole entry): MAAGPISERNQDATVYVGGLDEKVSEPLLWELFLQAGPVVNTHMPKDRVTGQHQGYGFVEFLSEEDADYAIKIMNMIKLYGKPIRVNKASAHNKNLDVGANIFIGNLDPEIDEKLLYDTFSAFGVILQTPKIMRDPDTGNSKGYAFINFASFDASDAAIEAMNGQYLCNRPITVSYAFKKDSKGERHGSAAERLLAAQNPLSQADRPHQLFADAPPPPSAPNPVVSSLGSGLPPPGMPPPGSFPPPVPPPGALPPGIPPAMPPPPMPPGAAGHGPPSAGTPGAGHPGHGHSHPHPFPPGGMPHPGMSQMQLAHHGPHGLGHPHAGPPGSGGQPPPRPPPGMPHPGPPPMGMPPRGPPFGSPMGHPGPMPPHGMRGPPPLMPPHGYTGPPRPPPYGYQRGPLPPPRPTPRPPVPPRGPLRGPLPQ

| Variant | effect of a mutation on the interaction |
| --- | --- |
| P519S | with no effect |
